Literature values as cited in article PMC9739371, “Deciphering the Binding of the Nuclear Localization Sequence of Myc Protein to the Nuclear Carrier Importin α3” (International Journal of Molecular Sciences, 2022).

Target: NLS-Myc (GFP fusion) NLS (Homo sapiens) (UniProt P01106)
Sequence (P01106 whole entry, looked up, the tested form may be a part): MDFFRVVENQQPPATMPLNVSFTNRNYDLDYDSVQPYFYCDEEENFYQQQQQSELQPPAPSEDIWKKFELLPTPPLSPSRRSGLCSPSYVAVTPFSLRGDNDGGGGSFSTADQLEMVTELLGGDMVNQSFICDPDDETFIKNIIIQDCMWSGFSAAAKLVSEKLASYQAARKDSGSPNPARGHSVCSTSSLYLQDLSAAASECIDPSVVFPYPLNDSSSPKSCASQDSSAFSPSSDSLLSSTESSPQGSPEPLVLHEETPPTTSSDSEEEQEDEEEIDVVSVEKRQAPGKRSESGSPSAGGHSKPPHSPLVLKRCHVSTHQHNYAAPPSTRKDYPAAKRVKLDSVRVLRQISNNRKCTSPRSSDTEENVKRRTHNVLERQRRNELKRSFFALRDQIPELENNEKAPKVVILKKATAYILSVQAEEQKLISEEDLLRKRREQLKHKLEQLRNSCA

Sequence of yeast ΔImpα ΔIBB (Q02821 1-68, stated change not applied): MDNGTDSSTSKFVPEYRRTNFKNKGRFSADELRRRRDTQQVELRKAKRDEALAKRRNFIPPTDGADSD

In the case of yeast ΔImpα ΔIBB (from UniProt Q02821), the Kd is listed as 6 nM.
